{
  "source": "patent US6319955A",
  "about": "“Use of MEK1 inhibitors as protective agents against damage due to ischemia” (priority 2000, dated 2001)",
  "origin": "cited, not measured here",
  "molecules": {"B1": {"name": "C84S tPA (protein, UniProt P00750 36-562, looked up, variant C84S)", "Tissue-type plasminogen …": "SYQVICRDEKTQMIYQQHQSWLRPVLRSNRVEYCWCNSGRAQCHSVPVKSCSEPRCFNGGTCQQALYFSDFVCQCPEGFAGKCSEIDTRATCYEDQGISYRGTWSTAESGAECTNWNSSALAQKPYSGRRPDAIRLGLGNHNYCRNPDRDSKPWCYVFKAGKYSSEFCSTPACSEGNSDCYFGNGSAYRGTHSLTESGASCLPWNSMILIGKVYTAQNPSAQALGLGKHNYCRNPDGDAKPWCHVLKNRRLTWEYCDVPSCSTCGLRQYSQPQFRIKGGLFADIASHPWQAAIFAKHRRSPGERFLCGGILISSCWILSAAHCFQERFPPHHLTVILGRTYRVVPGEEEQKFEVEKYIVHKEFDDDTYDNDIALLQLKSDSSRCAQESSVVRTVCLPPADLQLPDWTECELSGYGKHEALSPFYSERLKEAHVRLYPSSRCTSQHLLNRTVTDNMLCAGDTRSGGPQANLHDACQGDSGGPLVCLNDGRMTLVGIISWGLGCGQKDVPGVYTKVTNYLDWIRDNMRP"}},
  "conditions": "compared with native tPA",
  "data": [
    {"molecule": "B1", "values": [
      {"measurement": "in vivo half life, in words", "result": "longer in vivo half life than native tPA"}
    ]}
  ]
}
